The source of these data is the supplement of paper PMC9112550, “Optimization of the antimicrobial peptide Bac7 by deep mutational scanning” (BMC Biology, 2022).

In the data set the test system is Escherichia coli TOP10. The experiment in a line: shrunken log2 fold change of peptide-encoding DNA abundance (4.5 h post-induction vs induction); higher = less antimicrobial activity (less host growth inhibition). To be noted: time post-induction: 4.5 h; library: site-saturation at positions 5, 18, 19, 20.
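Note: peptides expressed intracellularly from a pBAD plasmid library in pooled LB shake-flask culture, induced with 0.3% L-arabinose, DNA abundance read by NGS, three biological replicates, DESeq2 with apeglm shrinkage.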

Consider RRIRWRPPRLPRPRPRPHELPRP, for which the “shrunken log2 fold change” value was -0.0349. As to RRIRNRPPRLPRPRPRPYTYPRP, the “shrunken log2 fold change” value was -0.68.

With RRIRGRPPRLPRPRPRPYTEPRP, the “shrunken log2 fold change” value was -0.0586.

As for RRIRWRPPRLPRPRPRPNPSPRP, the “shrunken log2 fold change” value was determined as 0.219. In the case of RRIRERPPRLPRPRPRPRDDPRP, the “shrunken log2 fold change” value was found to be 0.0953.

RRIRSRPPRLPRPRPRPSAYPRP: the “shrunken log2 fold change” value is -0.0159. Turning to RRIRTRPPRLPRPRPRPNDVPRP, the “shrunken log2 fold change” value is -0.0532. Consider RRIRERPPRLPRPRPRPVHTPRP, for which the “shrunken log2 fold change” value is -0.00346. The same measure for RRIRRRPPRLPRPRPRPYFVPRP: -0.381.

In the case of RRIRHRPPRLPRPRPRPAHFPRP, the “shrunken log2 fold change” value was 0.165. As for RRIRCRPPRLPRPRPRPVGMPRP, the “shrunken log2 fold change” value turned out to be 0.0711. On to RRIRERPPRLPRPRPRPTYIPRP, for which the “shrunken log2 fold change” value is -1.02.

On to RRIRRRPPRLPRPRPRPCTVPRP, for which the “shrunken log2 fold change” value was -0.0302.

On to RRIRIRPPRLPRPRPRPCSPPRP, for which the “shrunken log2 fold change” value is -0.271. Regarding RRIRWRPPRLPRPRPRPHPVPRP, the “shrunken log2 fold change” value is -0.0118. For RRIRERPPRLPRPRPRPVISPRP, the “shrunken log2 fold change” value is -0.145. As to RRIRLRPPRLPRPRPRPSSSPRP, the “shrunken log2 fold change” value turned out to be 0.172. Take RRIRRRPPRLPRPRPRPVYRPRP: the “shrunken log2 fold change” value is -0.235. Turning to RRIRNRPPRLPRPRPRPTDNPRP, the “shrunken log2 fold change” value is -0.353. The same measure for RRIRQRPPRLPRPRPRPIVIPRP: 0.0668; for RRIRCRPPRLPRPRPRPWVNPRP: -0.19; for RRIRMRPPRLPRPRPRPGVMPRP: 0.633.

With RRIRFRPPRLPRPRPRPYGTPRP, the “shrunken log2 fold change” value is -0.81.

With RRIRRRPPRLPRPRPRPFYWPRP, the “shrunken log2 fold change” value was -0.34. Regarding RRIRHRPPRLPRPRPRPGAHPRP, the “shrunken log2 fold change” value is -0.457. The same measure for RRIRTRPPRLPRPRPRPGYKPRP: -0.275; for RRIRSRPPRLPRPRPRPEFVPRP: 0.00503.

Consider RRIRKRPPRLPRPRPRPSYVPRP, for which the “shrunken log2 fold change” value is -0.294. Then RRIRRRPPRLPRPRPRPTRLPRP, with 0.612; and RRIRIRPPRLPRPRPRPMKGPRP, with -0.0335.

Consider RRIRNRPPRLPRPRPRPWSVPRP, for which the “shrunken log2 fold change” value was -0.328. RRIRARPPRLPRPRPRPNCNPRP: the “shrunken log2 fold change” value was -0.116. For RRIRHRPPRLPRPRPRPQHTPRP, the “shrunken log2 fold change” value was -0.386.

Consider RRIRFRPPRLPRPRPRPFKSPRP, for which the “shrunken log2 fold change” value was 0.0901.

On to RRIRIRPPRLPRPRPRPQFFPRP, for which the “shrunken log2 fold change” value is -0.304. As to RRIRDRPPRLPRPRPRPCQSPRP, the “shrunken log2 fold change” value was -0.121.

On to RRIRCRPPRLPRPRPRPVSLPRP, for which the “shrunken log2 fold change” value was -0.379. As to RRIRMRPPRLPRPRPRPGDQPRP, the “shrunken log2 fold change” value turned out to be 1.13. For the sequence RRIRIRPPRLPRPRPRPEYEPRP, the “shrunken log2 fold change” value was -0.0111. Take RRIRDRPPRLPRPRPRPVPDPRP: the “shrunken log2 fold change” value was -0.0933. In the case of RRIRARPPRLPRPRPRPKKFPRP, the “shrunken log2 fold change” value came out at 0.138. For the sequence RRIRDRPPRLPRPRPRPNFAPRP, the “shrunken log2 fold change” value was 0.605. Take RRIRVRPPRLPRPRPRPSNFPRP: the “shrunken log2 fold change” value is -0.476. The same measure for RRIRQRPPRLPRPRPRPMCYPRP: -0.01.

For RRIRTRPPRLPRPRPRPTPGPRP, the “shrunken log2 fold change” value worked out at 0.296. Then RRIRERPPRLPRPRPRPIMNPRP, with -1.02; and RRIRRRPPRLPRPRPRPEVPPRP, with 0.0172; and RRIRDRPPRLPRPRPRPFAHPRP, with 0.228. Then RRIRLRPPRLPRPRPRPRHFPRP, with -0.131. On to RRIRTRPPRLPRPRPRPWMEPRP, for which the “shrunken log2 fold change” value is -0.326. Take RRIRYRPPRLPRPRPRPQPRPRP: the “shrunken log2 fold change” value is 0.463.

Regarding RRIRARPPRLPRPRPRPLSVPRP, the “shrunken log2 fold change” value is -0.0782. Consider RRIRNRPPRLPRPRPRPMLNPRP, for which the “shrunken log2 fold change” value is -0.21. Take RRIRFRPPRLPRPRPRPAAFPRP: the “shrunken log2 fold change” value was -0.0126. As to RRIRDRPPRLPRPRPRPKIVPRP, the “shrunken log2 fold change” value was -0.198. In the case of RRIRRRPPRLPRPRPRPSCLPRP, the “shrunken log2 fold change” value was -0.172. As for RRIRGRPPRLPRPRPRPSMKPRP, the “shrunken log2 fold change” value came out at 0.354.

On to RRIRIRPPRLPRPRPRPLPIPRP, for which the “shrunken log2 fold change” value was -0.0341. Take RRIRHRPPRLPRPRPRPVNHPRP: the “shrunken log2 fold change” value was -0.361. For RRIRRRPPRLPRPRPRPGNTPRP, the “shrunken log2 fold change” value is -0.142. As to RRIRPRPPRLPRPRPRPHTMPRP, the “shrunken log2 fold change” value was -0.143.

In the case of RRIRYRPPRLPRPRPRPGMKPRP, the “shrunken log2 fold change” value was -0.067. Take RRIRHRPPRLPRPRPRPAQAPRP: the “shrunken log2 fold change” value came out at 0.183. Then RRIRRRPPRLPRPRPRPIQYPRP, with -0.00028. Consider RRIRTRPPRLPRPRPRPCTEPRP, for which the “shrunken log2 fold change” value was -0.237.

With RRIRHRPPRLPRPRPRPAHQPRP, the “shrunken log2 fold change” value stood at 0.0515. As to RRIRHRPPRLPRPRPRPTKLPRP, the “shrunken log2 fold change” value is -0.255. Then RRIRERPPRLPRPRPRPEHGPRP, with 0.174. On to RRIRNRPPRLPRPRPRPLYGPRP, for which the “shrunken log2 fold change” value is -0.171. Turning to RRIRLRPPRLPRPRPRPTYPPRP, the “shrunken log2 fold change” value is 0.0515. With RRIRRRPPRLPRPRPRPKQKPRP, the “shrunken log2 fold change” value came to 0.264. Regarding RRIRNRPPRLPRPRPRPWGFPRP, the “shrunken log2 fold change” value is -0.103. Take RRIRSRPPRLPRPRPRPDYWPRP: the “shrunken log2 fold change” value stood at 0.0977. With RRIRSRPPRLPRPRPRPIQTPRP, the “shrunken log2 fold change” value is -0.0822. In the case of RRIRDRPPRLPRPRPRPTECPRP, the “shrunken log2 fold change” value was -0.0183. Turning to RRIRERPPRLPRPRPRPPRIPRP, the “shrunken log2 fold change” value was -0.453.

Consider RRIRQRPPRLPRPRPRPIWWPRP, for which the “shrunken log2 fold change” value turned out to be 0.127. Take RRIRSRPPRLPRPRPRPRCMPRP: the “shrunken log2 fold change” value is -0.0959. Then RRIRARPPRLPRPRPRPRPLPRP, with 0.707; and RRIRQRPPRLPRPRPRPQPLPRP, with -0.0826; and RRIRQRPPRLPRPRPRPAYCPRP, with -0.043. As to RRIRRRPPRLPRPRPRPDYYPRP, the “shrunken log2 fold change” value was -0.0675. In the case of RRIRERPPRLPRPRPRPLPPPRP, the “shrunken log2 fold change” value was 0.124. Turning to RRIRMRPPRLPRPRPRPYKTPRP, the “shrunken log2 fold change” value came to 0.0261.

For RRIRWRPPRLPRPRPRPHFEPRP, the “shrunken log2 fold change” value is -0.165. In the case of RRIRLRPPRLPRPRPRPRERPRP, the “shrunken log2 fold change” value is 0.612. Regarding RRIRIRPPRLPRPRPRPLVAPRP, the “shrunken log2 fold change” value is -0.0566.

RRIRGRPPRLPRPRPRPEMIPRP: the “shrunken log2 fold change” value is 1.92. The same measure for RRIRVRPPRLPRPRPRPNICPRP: 0.27; for RRIRCRPPRLPRPRPRPGIVPRP: -0.0688; for RRIRSRPPRLPRPRPRPPWSPRP: 0.25. Take RRIRWRPPRLPRPRPRPVRFPRP: the “shrunken log2 fold change” value amounted to 0.0694. As to RRIRQRPPRLPRPRPRPDEAPRP, the “shrunken log2 fold change” value is -0.0116. Then RRIRARPPRLPRPRPRPPYSPRP, with -0.0108; and RRIRCRPPRLPRPRPRPTHGPRP, with 0.000601; and RRIRHRPPRLPRPRPRPNHRPRP, with -0.0366. Then RRIRFRPPRLPRPRPRPEQQPRP, with 0.171; and RRIRARPPRLPRPRPRPQQVPRP, with 0.0996; and RRIRCRPPRLPRPRPRPYWKPRP, with -0.737. Regarding RRIRMRPPRLPRPRPRPMKYPRP, the “shrunken log2 fold change” value stood at 0.0979. As for RRIRFRPPRLPRPRPRPVQNPRP, the “shrunken log2 fold change” value is 0.0293. Turning to RRIRARPPRLPRPRPRPWYTPRP, the “shrunken log2 fold change” value is -0.514. As to RRIRHRPPRLPRPRPRPSYSPRP, the “shrunken log2 fold change” value is -0.314. As to RRIRPRPPRLPRPRPRPKCMPRP, the “shrunken log2 fold change” value is -0.222.

On to RRIRERPPRLPRPRPRPIFIPRP, for which the “shrunken log2 fold change” value was -0.508. Then RRIRWRPPRLPRPRPRPNPPPRP, with 0.206; and RRIRFRPPRLPRPRPRPRDGPRP, with 1.36. With RRIRCRPPRLPRPRPRPMVMPRP, the “shrunken log2 fold change” value is 0.0583.

With RRIRTRPPRLPRPRPRPSRTPRP, the “shrunken log2 fold change” value was found to be 0.305. Consider RRIRHRPPRLPRPRPRPSKLPRP, for which the “shrunken log2 fold change” value is -0.448.

RRIRARPPRLPRPRPRPFFAPRP: the “shrunken log2 fold change” value was determined as 0.67.

In the case of RRIRQRPPRLPRPRPRPDADPRP, the “shrunken log2 fold change” value is -0.0253. RRIRTRPPRLPRPRPRPNGVPRP: the “shrunken log2 fold change” value was -0.0427. Take RRIRTRPPRLPRPRPRPHWTPRP: the “shrunken log2 fold change” value was -0.0902. Then RRIRFRPPRLPRPRPRPDARPRP, with -0.0768. Turning to RRIRNRPPRLPRPRPRPGVTPRP, the “shrunken log2 fold change” value amounted to 0.0223.

As for RRIRDRPPRLPRPRPRPTWTPRP, the “shrunken log2 fold change” value was -0.043.

Consider RRIRTRPPRLPRPRPRPTMTPRP, for which the “shrunken log2 fold change” value is -0.0413.

In the case of RRIRWRPPRLPRPRPRPGIQPRP, the “shrunken log2 fold change” value is 0.468. In the case of RRIRNRPPRLPRPRPRPTTNPRP, the “shrunken log2 fold change” value was 0.365.

As to RRIRYRPPRLPRPRPRPPWIPRP, the “shrunken log2 fold change” value was -0.447. As for RRIRIRPPRLPRPRPRPGDGPRP, the “shrunken log2 fold change” value is 0.281. The same measure for RRIRARPPRLPRPRPRPDHKPRP: -0.312. Take RRIRCRPPRLPRPRPRPVDVPRP: the “shrunken log2 fold change” value was -0.375. Then RRIRVRPPRLPRPRPRPIKPPRP, with -0.15.
